Laboratory results: US20160053277A1, “Compositions Having Dicamba Decarboxylase Activity and Methods of Use” (PIONEER HI-BRED INTERNATIONAL, INC., priority 2013, published 2016)

Columns and labels:
[1] = Saturation mutagenesis of SEQ ID NO:109: dicamba decarboxylation activity of point mutants (carbon dioxide released); conditions: decarboxylation activity (carbon dioxide released) of point mutant compared with unmutated backbone protein; backbone SEQ ID NO: 109
[2] = 14C assay with IPTG-induced recombinant E. coli cells: 14CO2 captured from [14C]-carboxyl-labeled dicamba; conditions: for Enzymatic Detection level: dicamba decarboxylation activity of the protein of the given SEQ ID NO, High / Low / No; for Dicamba Decarboxylase Activity: induced recombinant E. coli cells, [14C]-carboxyl-labeled dicamba, 14CO2 capture
[3] = Dicamba decarboxylation activity of computationally designed protein variants and their parents; conditions: for dicamba decarboxylase activity (native protein or designed variant): statement in the description
[4] = Product analysis of reactions of purified His-tag protein with dicamba (14C assay, GC/MS, LC-MS/MS); assay type: biochemical; conditions: for enzymatic reaction products detected: purified protein incubated with dicamba
Protocol: Alternatively, dicamba decarboxylase activity can be monitored by measuring decarboxylation products other than CO2 using product detection methods. The decarboxylation product of dicamba, 2,5-dichloro anisole or 2,5-DCA (FIG. 1C), is a volatile compound with a flash point of 21° C. To capture this volatile compound for detection, 140 ul of toluene solution is added on top of 1 ml reaction mixture to form a trapping layer in a 1.5 ml eppendorf tube. […] The reaction is kept still at room temperature overnight before being vortex mixed and centrifuged at 14,000 rpm for 15 minutes. The top toluene phase is carefully removed using a micropipette and transferred into a 12×32 mm polypropylene vial (Vial 11 mm) from MicroLiter Analytical Supplies, Inc. (catalog number 11-5300-100). The vial is sealed with Crimp seal (11 mm with FEP/Nat Rubber) from MicroLiter Analytical Supplies, Inc. (catalog number 11-0020A) using a E-Z Crimper™ 11 mm from Wheaton Inc. 1 ul of the toluene mixture is taken from the sealed vials and injected in splitless mode into a GC/MS system for sample analysis (Agilent GC/MS system with a 6890A GC, a 5973N MSD and a CTC CombiPAL auto-sampler or with a 7890A GC, a 5975C MSD and an Agilent GC Sampler 80 auto-sampler).

[5] = compared to estimated CO2 formation (100%)

B1: 1 (protein, listed as Rhizobium sp.)
chain: MAQGKVALEEHFAIPETLQDSAGFVPGDYWKELQHRLLDIQDTRLKLMDAHGIETMILSLNAPAVQAIPDRRKAIEIARRANDVLAEECAKRPDRFLAFAALPLQDPDAATEELQRCVNDLGFVGALVNGFSQEGDGQTPLYYDLPQYRPFWGEVEKLDVPFYLHPRNPLPQDSRIYDGHPWLLGPTWAFAQETAVHALRLMASGLFDEHPRLNIILGHMGEGLPYMMWRIDHRNAWVKLPPRYPAKRRFMDYFNENFHITTSGNFRTQTLIDAILEIGADRILFSTDWPFENIDHASDWFNATSIAEADRVKIGRTNARRLFKLDGA
Fold Activity [1]: 1.2 | decarboxylation activity of dicamba ([2]; among the 108 sequences tested, recombinant E. coli cells): showed decarboxylation activity of dicamba | Enzymatic Detection level [2]: High | Dicamba Decarboxylase Activity [2]: High | Percent Activity Improvement Over Parent ([3]; parent = 100): 100% | relative amount of 2,5-DCA [4, 5]: < 1% | relative amount of 2,5-DCP [4, 5]: > 80% | relative amount of 4-chloro-3-methoxy phenol [4, 5]: < 10% | enzymatic reaction products detected [4]: four enzymatic reaction products

B2: 117 (protein)
chain: MAKKPRIDMHSHFFPRISEQEAAKFDANHAPWLQVSAKGDTGSIMMGKNNFRPVYQALWDPAFRIEEMDAQGVDVQVTCATPVMFGYTWEANKAAQWAERMNDFALEFAAHNPQRIKVLAQVPLQDLDLACKEASRAVAAGHLGIQIGNHLGDKDLDDATLEAFLTHCANEDIPILVHPWDMMGGQRMKKWMLPVLVAAPAEVQLAILSLILSGAFERIPKSLKICFAGGGGSFAFLLGIVDLAWRHRDIVREDCPRPPSEYVDRFFVDSLVFNPGALELLVSVMGEDRVMLGSDYPFPTGEQKIGGLVLSSNLGESAKDKIISGNASKFFNINV
modifications: Dicamba decarboxylase variant clone: DC.5.008
Fold Activity [1]: 1.8 | Enzymatic Detection level [2]: High | dicamba decarboxylase activity (native protein or designed variant) [3]: have dicamba decarboxylase activity | enzymatic reaction products detected [4]: 2,5-DCA was detected

B3: 118 (protein)
chain: MAKKPRIDMHSHFFPRISEQEAAKFDANHAPWLQVSAKGDTGSIMMGKNNFQPVYQALWDPAFRIEEMDAQGVDVQVTCATPVMFGYTWEANKAAQWAERMNDFALEFAAHNPQRIKVLAQVPLQDLDLACKEASRAVAAGHLGIQIGNHLGDKDLDDATLEAFLTHCANEDIPILVHGTDMMGGQRMKKWGLPWLVALAAEVQLAILSLILSGAFERIPKSLKICFSHGGGSFAFLLGLVDEAWRHVDIVREDCPRPPSEYVDRFFVDSVGNPGALELLVSVMGEDRVMLGSDYPHTTGEQKIGGLVLSSNLGESAKDKIISGNASKFFNINV
modifications: Dicamba decarboxylase variant clone: DC.5.033
Fold Activity [1]: 1.4 | Enzymatic Detection level [2]: High | dicamba decarboxylase activity (native protein or designed variant) [3]: have dicamba decarboxylase activity | enzymatic reaction products detected [4]: 2,5-DCA was detected

B4: 119 (protein)
chain: MAKKPRIDMHSHFFPRISEQEAAKFDANHAPWLQVSAKGDTGSIMMGKNNFQPVYQALWDPAFRIEEMDAQGVDVQVTCATPVMFGYTWEANKAAQWAERMNDFALEFAAHNPQRIKVLAQVPLQDLDLACKEASRAVAAGHLGIQIGNHLGDKDLDDATLEAFLTHCANEDIPILVHGWDMMGGQRMKKWGLYWLVAHHAEVQLAILSLILSGAFERIPKSLKICFSHGGGSFAFTLGWVDEAWRHVDIVREDCPRPPSEYVDRFFVDSVGNPGALELLVSVMGEDRVMLGSDYPLTTGEQKIGGLVLSSNLGESAKDKIISGNASKFFNINV
modifications: Dicamba decarboxylase variant clone:DC.5.034
Fold Activity [1]: 1.6 | Enzymatic Detection level [2]: High | dicamba decarboxylase activity (native protein or designed variant) [3]: have dicamba decarboxylase activity | enzymatic reaction products detected [4]: 2,5-DCA was detected

B5: 120 (protein)
chain: MAIIDCHGHYTTTPKGVETYRNAQKAAVAKDPSFKYEKGQVVVSDDEIRESIENNQLKMQRERGTDLTIFSPRSTAGGHHIGNEYTSQFWTEHQNDLIRRVCDLFPKNFAPVAQLPQSPGVDPAKSVPEIVRTVEQMGFIGINLNPDPSGGYWKDTSLADRAFYPIYEKMVEYDIPAMIHPRNACNDCFHTTGSHALGADTTGFQQLIMSDVFKDFPSLKIIIPHGGGAVPYHWGRFRGLMQDQGYAPLEESALKNIYFDTCVYHQRGIDLLLDIVPTQNILFASEMIGAVRGIDAETGHNFDDTKRYIDNNTALNAEEKAMIFEGNARRVFSRLKTD
modifications: Dicamba decarboxylase variant clone: DC.12.002
Fold Activity [1]: 1.3 | Enzymatic Detection level [2]: High | dicamba decarboxylase activity (native protein or designed variant) [3]: have dicamba decarboxylase activity | enzymatic reaction products detected [4]: 2,5-DCA was detected

B6: 121 (protein)
chain: MAIIDCHGHYTTTPKGVEDYRNAQKAAVAKDPSFKGEKGQVVVSDDEIRESIENNQLKMQRERGTDLTIFSPRWDAGGHHIGNEYTSQFWTEHQNDLIRRVCDLFPKNFAPVAQLPQSPGVDPAKSVPEIVRTVEQMGFIGINLNPDPSGGYWKDTSLADRAFYPIYEKMVEYDIPAMIHPRLACNACFHTGLSVGLGADTTGFQQLIMSDVFKDFPSLKIIIPHGGGAVPYHWGRFRGLMQDQGYAPLEESALKNIYFDTCVYHQRGIDLLLDIVPTQNILFASEMIGAVRGIDPETGHNFDDTKRYIDNNTALNAEEKAMIFEGNARRVFSRLKTD
modifications: Dicamba decarboxylase variant clone: DC.12.014
Fold Activity [1]: 1 | Enzymatic Detection level [2]: High | dicamba decarboxylase activity (native protein or designed variant) [3]: have dicamba decarboxylase activity | enzymatic reaction products detected [4]: 2,5-DCA was detected

B7: 122 (protein)
chain: MAIIDCHGHYTTTPKGVEDYRNAQKAAVAKDPSFKGEKGQVVVSDDEIRESIENNQLKMQRERGTDLTIFSPRSTAGGHHIGNEYTSQFWTEHQNDLIRRVCDLFPKNFAPVAQLPQSPGVDPAKSVPEIVRTVEQMGFIGINLNPDPSGGYWKDTSLADRAFYPIYEKMVEYDIPAMIHPRNACNDCFHTTGSHALGADTTGFQQLIMSDVFKDFPSLKIIIPHGGGAVPYHWGRFRGLMQDQGYAPLEESALKNIYFDTCVYHQRGIDLLLDIVPTQNILFASDMIGAVRGIDPETGHNFDDTKRYIDNNTALNAEEKAMIFEGNARRVFSRLKTD
modifications: Dicamba decarboxylase variant clone: DC.12.103
Fold Activity [1]: 0.9 | Enzymatic Detection level [2]: High | dicamba decarboxylase activity (native protein or designed variant) [3]: have dicamba decarboxylase activity | enzymatic reaction products detected [4]: 2,5-DCA was detected

B8: 100 (protein, listed as Reinekea blandensis)
chain: MAIIDCHGHYTTTPKGVEDYRNAQKAAVAKDPSFKGEKGQVVVSDDEIRESIENNQLKMQRERGTDLTIFSPRASWMGHHIGNEYTSQFWTEHQNDLIRRVCDLFPKNFAPVAQLPQSPGVDPAKSVPEIVRTVEQMGFIGINLNPDPSGGYWKDTSLADRAFYPIYEKMVEYDIPAMIHVSAACNDCFHTTGSHYLGADTTGFQQLIMSDVFKDFPSLKIIIPHGGGAVPYHWGRFRGLMQDQGYAPLEESALKNIYFDTCVYHQRGIDLLLDIVPTQNILFASEMIGAVRGIDPETGHNFDDTKRYIDNNTALNAEEKAMIFEGNARRVFSRLKTD
Fold Activity [1]: 2.5 | Enzymatic Detection level [2]: No | Dicamba Decarboxylase Activity [2]: No | dicamba decarboxylase activity (native protein or designed variant) [3]: Neither of the native proteins have dicamba decarboxylase activity
